Experimental data as given in patent US20250011363A1, “OPTIMIZED SHORTENED PEPTIDE THAT BINDS TO ACETYLCHOLINE RECEPTOR, AND USE THEREOF” (SKINMED CO., LTD., priority 2021, published 2025).

The substances below were run against acetylcholine receptor (Homo sapiens, UniProt P02708) (assay: SPR binding affinity (RU) of optimized 5mer/6mer/7mer peptides, Examples 6-7). Conditions: 6mer-1 Top sequence; SPR; peptides tested at 10 μM.
Sequence of acetylcholine receptor (P02708 21-457): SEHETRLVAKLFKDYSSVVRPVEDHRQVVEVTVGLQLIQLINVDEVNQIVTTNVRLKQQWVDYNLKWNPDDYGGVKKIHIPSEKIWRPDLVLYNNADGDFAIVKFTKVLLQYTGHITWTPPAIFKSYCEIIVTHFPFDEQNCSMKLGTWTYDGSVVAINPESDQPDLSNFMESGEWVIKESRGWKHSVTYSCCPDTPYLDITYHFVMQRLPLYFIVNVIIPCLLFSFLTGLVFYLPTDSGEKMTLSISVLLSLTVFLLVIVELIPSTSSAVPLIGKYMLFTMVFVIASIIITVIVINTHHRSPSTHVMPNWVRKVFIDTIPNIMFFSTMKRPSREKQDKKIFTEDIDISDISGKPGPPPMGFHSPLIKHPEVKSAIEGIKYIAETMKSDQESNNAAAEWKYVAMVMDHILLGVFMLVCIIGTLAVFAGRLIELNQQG
Summary of the method: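 Binding response (RU) to the human acetylcholine receptor was measured by SPR. Each 5mer or 6mer library peptide was applied at 10 μM, with sequences drawn from top and bottom amino-acid combinations.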
Work on 6mer-1-209 (RKGYTR) yielded a Binding affinity of 121 Ru. For 6mer-1-281 (KRLLCR), the Binding affinity was 154 Ru. 6mer-1-345 (KKLLCR) gave a Binding affinity of 147 Ru. 6mer-1-387 (KKGRLR) was tested, and the Binding affinity was 148 Ru. 6mer-1-245 (RRGFRR) gave a Binding affinity of 142 Ru. Work on 6mer-1-370 (RKQLYK) yielded a Binding affinity of 142 Ru. 6mer-1-239 (RKVLCR) showed a Binding affinity of 136 Ru. 6mer-1-265 (RKSVCR) gave a Binding affinity of 145 Ru. 6mer-1-243 (KKWYLR) was tested, and the Binding affinity was 136 Ru.

Same assay, conditions: 6mer-2 Top sequence; SPR; peptides tested at 10 μM
6mer-2-14 (RGRQKK) showed a Binding affinity of 153 Ru. With 6mer-2-154 (KRVTKR) the Binding affinity was 148 Ru. 6mer-2-156 (KGLQRR) showed a Binding affinity of 127 Ru. Substance 6mer-2-84 (KQRYKK) has a Binding affinity of 139 Ru. Work on 6mer-2-132 (KLYCKK) yielded a Binding affinity of 139 Ru.

Same assay, conditions: SPR, Resonance Units; 5mer Bottom sequence (bottom combinations); peptides tested at 10 μM
5mer-694 (KNNAR) showed a Binding affinity of 24 Ru. For 5mer-708 (KPKAR), the Binding affinity was 20 Ru. 5mer-993 (KEKFR) showed a Binding affinity of 27 Ru. In the case of 5mer-732 (KIMWR), the Binding affinity is reported as 22 Ru. Work on 5mer-1085 (RTTER) yielded a Binding affinity of 14 Ru. Work on 5mer-1063 (RPHVK) yielded a Binding affinity of 20 Ru. 5mer-930 (RAWVR) gave a Binding affinity of 20 Ru. 5mer-635 (RMNGR) showed a Binding affinity of 21 Ru. In the case of 5mer-804 (RNTIR), the Binding affinity is reported as 20 Ru. In the case of 5mer-666 (RHDWR), the Binding affinity is reported as 18 Ru. Substance 5mer-758 (KCDFK) has a Binding affinity of 30 Ru. Substance 5mer-737 (RINVR) has a Binding affinity of 13 Ru. With 5mer-774 (RTCDR) the Binding affinity was 25 Ru. Work on 5mer-709 (RHTIR) yielded a Binding affinity of 27 Ru. 5mer-770 (KKPFR) gave a Binding affinity of 11 Ru. 5mer-919 (KNNIK) was tested, and the Binding affinity was 32 Ru.

Same assay, conditions: SPR, Resonance Units; peptides tested at 10 μM; 6mer-1 Bottom sequence
In the case of 6mer-1-1025 (KRFAKR), the Binding affinity is reported as 33 Ru. Work on 6mer-1-999 (RKATNR) yielded a Binding affinity of 24 Ru. 6mer-1-1191 (RKYTKK) gave a Binding affinity of 39 Ru. 6mer-1-1022 (RKDTVR) was tested, and the Binding affinity was 22 Ru. 6mer-1-998 (KRNPVK) was tested, and the Binding affinity was 41 Ru. For 6mer-1-1155 (RKKEKR), the Binding affinity was 28 Ru. 6mer-1-1129 (RKDHAR) showed a Binding affinity of 39 Ru. 6mer-1-1124 (KKDEIR) gave a Binding affinity of 21 Ru.

Same assay, conditions: SPR, Resonance Units; peptides tested at 10 μM; 6mer-1 Bottom sequence (Table 11)
Work on 6mer-1-674 (RKHPKK) yielded a Binding affinity of 32 Ru. Work on 6mer-1-634 (KKNTMR) yielded a Binding affinity of 12 Ru. 6mer-1-615 (KKTSER) was tested, and the Binding affinity was 18 Ru. Work on 6mer-1-772 (KRNCAK) yielded a Binding affinity of 12 Ru. For 6mer-1-792 (KRKDKK), the Binding affinity was 30 Ru. 6mer-1-685 (RRESWK) was tested, and the Binding affinity was 14 Ru. With 6mer-1-738 (RKYHHR) the Binding affinity was 25 Ru. Work on 6mer-1-715 (KRMMVK) yielded a Binding affinity of 18 Ru. For 6mer-1-617 (KRHNVR), the Binding affinity was 31 Ru. With 6mer-1-665 (KKCDGK) the Binding affinity was 21 Ru.

Same assay, conditions: SPR, Resonance Units; peptides tested at 10 μM; 6mer-2 Bottom sequence
With 6mer-2-738 (KPWFKK) the Binding affinity was 29 Ru. With 6mer-2-642 (KTENKK) the Binding affinity was 16 Ru. 6mer-2-645 (RIKVKK) showed a Binding affinity of 15 Ru. For 6mer-2-602 (RNTPKR), the Binding affinity was 24 Ru. 6mer-2-671 (RDWIRR) was tested, and the Binding affinity was 27 Ru. Substance 6mer-2-831 (RMTWRK) has a Binding affinity of 29 Ru. 6mer-2-976 (RTTGKK) was tested, and the Binding affinity was 26 Ru. 6mer-2-928 (KFCIRR) showed a Binding affinity of 28 Ru. Work on 6mer-2-860 (KPNFRR) yielded a Binding affinity of 31 Ru. For 6mer-2-776 (RFPWRK), the Binding affinity was 12 Ru. In the case of 6mer-2-849 (RNTAKK), the Binding affinity is reported as 13 Ru. 6mer-2-695 (KCWWRR) showed a Binding affinity of 28 Ru. In the case of 6mer-2-916 (KTTEKR), the Binding affinity is reported as 22 Ru. With 6mer-2-631 (KYCMKR) the Binding affinity was 16 Ru. With 6mer-2-733 (RTPARK) the Binding affinity was 29 Ru. 6mer-2-805 (RDTMKK) gave a Binding affinity of 12 Ru. For 6mer-2-606 (RKPFRR), the Binding affinity was 15 Ru.

Same assay, conditions: SPR, Resonance Units; peptides tested at 10 μM; 6mer-2 Top sequence
6mer-2-469 (RLRTKK) gave a Binding affinity of 153 Ru. In the case of 6mer-2-542 (RQIYRR), the Binding affinity is reported as 148 Ru. 6mer-2-485 (RQIQKR) showed a Binding affinity of 148 Ru. 6mer-2-512 (RWFTRR) gave a Binding affinity of 148 Ru. Substance 6mer-2-409 (KRRRKR) has a Binding affinity of 139 Ru. For 6mer-2-572 (KSQRRK), the Binding affinity was 148 Ru.

Same assay, conditions: SPR, Resonance Units; peptides tested at 10 μM; 6mer-2 Top sequence (Table 12)
With 6mer-2-217 (KLFQKK) the Binding affinity was 135 Ru. In the case of 6mer-2-311 (KVVTRK), the Binding affinity is reported as 147 Ru. For 6mer-2-349 (RRLSRR), the Binding affinity was 137 Ru. Substance 6mer-2-299 (RWYYRK) has a Binding affinity of 141 Ru. For 6mer-2-234 (RSQTKR), the Binding affinity was 142 Ru. 6mer-2-400 (RQIRRR) showed a Binding affinity of 154 Ru. For 6mer-2-214 (RWRSRK), the Binding affinity was 139 Ru.

Same assay, conditions: SPR, peptides at 10 μM; 6mer-2 Bottom sequence
With 6mer-2-1042 (KKMFRK) the Binding affinity was 36 Ru. With 6mer-2-1152 (RNWAKK) the Binding affinity was 37 Ru. 6mer-2-1109 (KEDMRK) gave a Binding affinity of 26 Ru. Substance 6mer-2-1195 (KMTERK) has a Binding affinity of 25 Ru. 6mer-2-1104 (RYTKKR) was tested, and the Binding affinity was 38 Ru. Substance 6mer-2-1008 (RAWKKR) has a Binding affinity of 38 Ru. With 6mer-2-1163 (KCHFKK) the Binding affinity was 37 Ru. For 6mer-2-1057 (RKKKKK), the Binding affinity was 25 Ru. For 6mer-2-1043 (RDKGKK), the Binding affinity was 40 Ru. For 6mer-2-1097 (RFWEKK), the Binding affinity was 23 Ru. For 6mer-2-1142 (KKAMKR), the Binding affinity was 30 Ru. In the case of 6mer-2-1118 (RFDGRR), the Binding affinity is reported as 42 Ru.

Same assay, conditions: SPR, peptides tested at 10 μM; 5mer Top sequence
5mer-412 (RGRSR) showed a Binding affinity of 81 Ru. In the case of 5mer-482 (KQFCK), the Binding affinity is reported as 75 Ru. 5mer-11 (KQRLR) was tested, and the Binding affinity was 84 Ru. With 5mer-393 (KSLQR) the Binding affinity was 75 Ru. 5mer-64 (KVVTR) was tested, and the Binding affinity was 76 Ru. Work on 5mer-31 (RRLQR) yielded a Binding affinity of 65 Ru. 5mer-382 (RLRQR) showed a Binding affinity of 62 Ru. Work on 5mer-65 (RQIRR) yielded a Binding affinity of 67 Ru. 5mer-424 (RVYLK) gave a Binding affinity of 87 Ru. In the case of 5mer-498 (KLISK), the Binding affinity is reported as 53 Ru. For 5mer-367 (RSVQK), the Binding affinity was 71 Ru. Substance 5mer-171 (KSIQR) has a Binding affinity of 55 Ru. 5mer-145 (RSFSK) gave a Binding affinity of 62 Ru. For 5mer-343 (KSFSR), the Binding affinity was 60 Ru. In the case of 5mer-441 (KLIRK), the Binding affinity is reported as 53 Ru. With 5mer-374 (KLFTR) the Binding affinity was 75 Ru. Substance 5mer-396 (KVVCR) has a Binding affinity of 53 Ru. With 5mer-398 (KGQCR) the Binding affinity was 71 Ru. Work on 5mer-6 (RWQQK) yielded a Binding affinity of 61 Ru.

Same assay, conditions: SPR, peptides tested at 10 μM; 5mer Top sequence (top combinations)
Substance 5mer-571 (RRLTK) has a Binding affinity of 51 Ru. Substance 5mer-273 (RVQSK) has a Binding affinity of 82 Ru. 5mer-552 (RLYSR) gave a Binding affinity of 63 Ru. With 5mer-517 (KGYTR) the Binding affinity was 70 Ru. Substance 5mer-250 (RQFSR) has a Binding affinity of 76 Ru. With 5mer-300 (RQYRK) the Binding affinity was 81 Ru. Substance 5mer-542 (KRYTR) has a Binding affinity of 85 Ru. In the case of 5mer-294 (KQYYK), the Binding affinity is reported as 50 Ru.

Same assay, conditions: SPR, peptides tested at 10 μM; 6mer-1 Bottom sequence
6mer-1-1200 (RKACEK) gave a Binding affinity of 21 Ru.

Same assay, conditions: SPR, peptides tested at 10 μM; 6mer-1 Bottom sequence (Table 11)
6mer-1-962 (KKNCDK) showed a Binding affinity of 42 Ru. Substance 6mer-1-923 (RRASDR) has a Binding affinity of 43 Ru. 6mer-1-856 (KRMWFK) gave a Binding affinity of 30 Ru. 6mer-1-909 (RKFCMR) was tested, and the Binding affinity was 33 Ru. In the case of 6mer-1-961 (RRTWAR), the Binding affinity is reported as 122 Ru. Substance 6mer-1-942 (RRMMVR) has a Binding affinity of 37 Ru. For 6mer-1-926 (KRESDR), the Binding affinity was 40 Ru. Substance 6mer-1-840 (RKICNK) has a Binding affinity of 12 Ru.

Same assay, conditions: SPR, peptides tested at 10 μM; 6mer-1 Top sequence
For 6mer-1-484 (KKLYLR), the Binding affinity was 154 Ru. In the case of 6mer-1-548 (RRVYSR), the Binding affinity is reported as 123 Ru. 6mer-1-413 (RKQFCR) gave a Binding affinity of 148 Ru. Work on 6mer-1-518 (KRWVLK) yielded a Binding affinity of 153 Ru. In the case of 6mer-1-431 (RRRFRR), the Binding affinity is reported as 144 Ru. Substance 6mer-1-491 (RKLRLR) has a Binding affinity of 137 Ru. Work on 6mer-1-443 (RKVLLK) yielded a Binding affinity of 145 Ru. 6mer-1-554 (KRSVTR) showed a Binding affinity of 131 Ru. 6mer-1-579 (KRSVRK) showed a Binding affinity of 148 Ru. In the case of 6mer-1-589 (KKLQQK), the Binding affinity is reported as 139 Ru.

Same assay, conditions: SPR, peptides tested at 10 μM; 6mer-1 Top sequence (top combinations)
6mer-1-189 (KKSYSK) gave a Binding affinity of 137 Ru. 6mer-1-76 (RRLQLK) was tested, and the Binding affinity was 126 Ru. With 6mer-1-199 (KKQVQK) the Binding affinity was 151 Ru. 6mer-1-105 (KKSISK) was tested, and the Binding affinity was 141 Ru. 6mer-1-145 (RKVFQR) showed a Binding affinity of 141 Ru. 6mer-1-110 (KRQLLK) gave a Binding affinity of 121 Ru.

Same assay, conditions: SPR; XRRGVRR-7mer and RRGVRRX-7mer
In the case of 3664 (RRGVRRC) [compound 3664], the “Binding affinity, values relative to the RRGVRR sequence” value is reported as 131. In the case of 3669 (RRGVRRW) [compound 3669], the “Binding affinity, values relative to the RRGVRR sequence” value is reported as 134.

Same assay, conditions: SPR; XRRQRR-6mer and RRQRRX-6mer
In the case of 3603 (VRRQRR) [compound 3603], the “Binding affinity, relative value to the RRQRR sequence” value is reported as 135. 3631 (RRQRRS) [compound 3631] was tested, and the “Binding affinity, relative value to the RRQRR sequence” value was 113.

Same assay, conditions: SPR; peptides tested at 10 μM; 5mer Bottom sequence
Work on 5mer-1159 (KKWKK) yielded a Binding affinity of 17 Ru. With 5mer-1199 (KNNNR) the Binding affinity was 29 Ru. 5mer-1153 (RDAPR) was tested, and the Binding affinity was 27 Ru.
